# Source: the nanobody polyreactivity screen of Harvey et al. (2022)
# Experiment: yeast display, Sf9 membrane polyspecificity reagent, FACS + sequencing; frameworks hold sequencing errors
# How it was run: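 A nanobody's polyreactivity label depends on the gate it was sorted from. Yeast display cells were stained with 10% biotinylated, detergent-solubilized Sf9 membrane reagent for 1 hour at 4 °C, enriched on streptavidin microbeads and sorted by FACS. The low and high (top ~1%) gates were set on anti-HA fluorescence for expression and streptavidin fluorescence for reagent binding.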
row,Sequence,polyreactivity (PSR sort gate)
1,QVQLVESGGRLVQAGGSLRLSCAASGLTFPVYAMGWYRQAPGKEREFVASISGRGASTYYADSVKGRFTISRDNAKNTVYLQMNSLKPEDTAVYYCNADVWLLSYFPEYDYWGQGTQVTVSS,low polyreactivity
2,QVQLVESGGRLVQAGGSLRLSCAASGRIFAQYAMGWYRQAPGKERELVAAISGRGRTTYYADSVKGRFTISRDNEKNNVYLQMNSVKPEDTAAYYCAAKSTYVAGDYSGQGTQVTVSS,high polyreactivity
3,QVQLVESGGRLVQAGGSLRLSCAASGRIFIYNAMGWYRQAPGKERELVAAISVSGGRTYYADSVKGRFTISRDNAKNTVYLQMNSLKPEDTAVYYCNKVRVGSLRGYWGQGTQVTVSS,high polyreactivity
4,QVQLVESGGRLVQAGGSLRLSCAASGRIFRRNAMGWYRQAPGKERELVAAISSSGGRTYYADSVKGRFTISRDNAKNTVYLQMNSLKPEDTAVYYCATRESLEPGYYWGQGTQVTVSS,high polyreactivity
5,QVQLVESGGRLVQAGGSLRLSCAASGRIFVRNAKGWYRQAPGKERELVADITNGGSTNYADSVKGRFTISRDNAKNTVYLQMNSLKPEDTAVVYWAADTLGVYDGDYWGQGTQVTVSS,low polyreactivity
6,QVQLVESGGRLVQAGGSLRLSCAASGRIIYGYAMGWYRQAPGKERELVATITWSGGSTYYADSVKGRFTISRDNAKNTVYLQMNSLKPEDTAVYYCAAYSPFIYQAYRYDYWGQGTLVTVSS,low polyreactivity
7,QVQLVESGGRLVQAGGSLRLSCAASGRTFPVYAMGWYRQAPGKERELVAAISWSGGSTYYADSVKGRFTISRDNAKNTVYLQMNSLKPEDTAVYYCAKAYHLGLGYRFDYWGQGTQVTVSS,high polyreactivity
8,QVQLVESGGRLVQAGGSLRLSCAASGSIFGGNDMGWYRQAPGKERELVAAITSSGGSTYYADSVKGRFTISRDNAKNTVYLQMNSLKPEDTAVYYCNADYYGPYRDYGYWGQGTQVTVSS,low polyreactivity
9,QVQLVESGGRLVQAGGSLRLSCAASGSIFTVYAMGCYRQAPGKERELVAAIRRTGSRTYYADSVKGRFTNSRDNAKNTVYLQMNSLKPEDTAVYYCAADVWFDRRSVRLNYWGQGTQVTVSS,high polyreactivity
10,QVQLVESGGRLVQAGGSLRLSCAASGSILDGNTMGWYRQAPGKEMELVAAITWDGTSTYYADSVKGRFTISRDNAKNTVYLQMNSLKPEDTAVYYCAATKGYSDQSTGYYAYIHYDYWGQGTQVTVSS,low polyreactivity
11,QVQLVESGGRLVQAGGSLRLSCAASGSNFETYDMGWYRQAPRKERELVAAITLSGGSTYYADSVKGRFTISRDNAKNTVYLQMNSLKPEDTAVYYCAADDSGVKVWEGDYWGQGTQVTVSS,low polyreactivity
12,QVQLVESGGRLVQAGGSLRLSCAASGSTFDYNAMGWYRQEPGKESEFVAAITSTGGNTYYADSVKGRFTISRDNAKNTVYLQMNSLKPEDTAVDYCNKDVARYPYGKFDYWGQGTQVTVSS,low polyreactivity
13,QVQLVESGGRLVQAGGSLRLSCAASGSTFHSYVMGWYRQAPGKERELVAAITSRGGSTNYADSVKGRFTISRDNAKNTVYLKMNSLIPEDTAVYYCAADCYWGWSYFRYDYWGQVTQVTVSS,low polyreactivity
14,QVQLVESGGRLVQAGGSLRLSCAASGSTFTVIGMGWYRQAPGKERELVASITWSGGSTYYADSVKGRFTISRDNAKNTVYLQMTSLIPEDTAVYYCAADEKLYITGYDYWGQGTQVTVSS,low polyreactivity
15,QVQLVESGGRLVQAGGSLRLSCAASGSTFYPYAMGWYRQAPGKERELVAAINGNGGRTYYADSVKGRFTISRDNAKNTVYLQMNSLKPEDTAVFYCAVVRVAWGHRSDYWGQGTQVTVSS,high polyreactivity
16,QVQLVESGGRLVQAGGSLRLSCAASGYTFPYANGWYRQAPGKERELVAGITSSGGSTYYADSVKGRFTISRDNAKNTVYLQMNSVKPEDTAVYYCNADVFVWLYPHYLIFDYWGQGTQVTVSS,low polyreactivity
17,QVQLVESGGRLVQAGGSLRLSCAATGSTFYKNPMGRYRHAPRKEREVVAAISTSGGSTYYADSLKGRFTISRDNAKNTVYLHMNRLKPEDTAVNYCATRRRIPSSCYYDNDYWGQGTQVTVSS,high polyreactivity
18,QVQLVESGGRLVQAGGSLRLSCASSGRTFYPNAMGWYRHAPGKESELVAGIRSSGDSTYYADSVKGRFTISRDNAKNTVYLQMNSLKPEDTAVYYCNRDLTPSYDYWGQCTQVTVSS,low polyreactivity
19,QVQLVESGGRLVQAGGSLRLSSAASGRTFTSYAMGWYRQSPGKERELVAAISRRGGSTYYADSVKGRFTISRDNAKNTVYLQMNSLKPEDTAVYYCNKATRYYLVELNYWGQGTQVTVSS,high polyreactivity
20,QVQLVESGGRLVQAGGSLRLTCAASGRTFNYYAMGWYRQAPGKERELVAAISRSGGSTYYADSVKGRFTISRDNAKNTVYLQMNSLKPEDTAVYYCNRDRGSIYGWGQGTQVTVSS,high polyreactivity
21,QVQLVESGGRLVQAGGSLRLTLAASGNTRGSYAMGWYRQAPGKEREFVATISKRGGSTYYADSVKGRFTISRDNAKNTVYLQMNSLKPEDTAVYYCNKDPYSIYRPGSGQGYAFNYWGQGTQVTVSS,high polyreactivity
22,QVQLVESGGRLVQAGGSLRVSCAASGSIFRIYSMGWYRQAPGKERELVATISSTGSTYYADSVKGRFTISRDNAKNSVYLQLNSQKPEDTAVYYCAALWKVSSRYWRMDYWGQGTQVTVSS,high polyreactivity

row,Sequence,polyreactivity (PSR sort gate)
1,QVQLVESGGRLVQAGGSRRLSCAGSGSIFHHNAMGSYRQAPGKESELVAAISSRSGNTYYADSVKGRFTISRDNAKNTVYLQMNSLKPEDPAVYYCAAGIRLSYSTYDSWGQGTQVTVSS,high polyreactivity
2,QVQLVESGGRLVQARGSLRLSCAASGSIFATYVMGWYRQAPGKERELVATITYSGDSTYYADSVKGRFTISRDNAKNTVYLQMNSVKPEDTAVYYCAADYFTLYPYRGFDYWGQGTQVTVSS,low polyreactivity
3,QVQLVESGGSLVQAGGSLRLSCAASGFIFQDNAMGWYRQAPGKERELVAAIRSTGSTNYADSVKGRFTISRDNAKNTVYLQMNSLKPEDTAVYYCNAGKYQSDTPSLVPTEYPAFYYWGQGTQVTVSS,low polyreactivity
4,QVQLVESGGSLVQAGGSLRLSCSASGFIFYTNAMGWYRQAPGKERELVAAISSRGTRTYYADSVKGRFTISRDNAKNSVYLQLNSLKPEDTAVYYCAVRTRYLGLEYYYWGQGSQVTVSS,high polyreactivity
5,QVQLVESGGSLVQAGGSLRLSSAASGITFSDYAMRWYRPAPGKESELVAGITSGGSTYYADSVKGRFTISRDNAKNTVYLQMNSLKPEDSAVYYCAAVRRWKYDWGQGTQVTVSS,high polyreactivity
6,QVQLVESGGVLDQAGGSLRLSCAASGRIYFNKAMGWYRPAPGKEWELVAAINAGGRTNYADSVKGRFTISRDNEKNTVFLHMTSLKQEDTSVYYCNADDNPVWEYDYWGQGTQVTVSS,low polyreactivity
7,QVQLVESGGVLGQAGGSLRLSCAPSGSLIGGYAMGWYRQAPGKQRELVAAISYRGATTYYADSVKGRFTISRDNSKNTVYFQMNSLKPEDTAVYYCDVAARTRARVLYGYDYGGQGTQVTVSS,low polyreactivity
8,QVQLVESGGVLVHAGGILRLSCAASGSTIVRYAMGWYRQAPGKERELVAAKSSRGGSTYYADSVKGRFTITRDNAKNTVYLQMNILKPEDTGVYYCSAAPPGTIAYRVGSWGQGTQVTVSS,high polyreactivity
9,QVQLVESGGVLVQAGARLRLSSAASRFTLALNTMGCYIQAPVKERELVAAISWSGGSTFADSVKGRFTISRDNAKNTFYLQMNSLKPEDTAVYYCAAPLHVAGGYSRDFGSWGQGTQVTVSS,low polyreactivity
10,QVQLVESGGVLVQAGASLRLSCAASVRIFWLNARGCYRQAPGKEREFVASITYGSDSTYYSDSVNGRFTISRDNAKNTVYLQMNSLIPEDTSVYYCNREGWHYGPYEYWGQVTQVTVSS,low polyreactivity
11,QVQLVESGGVLVQAGGILRLSCAASVRTFYRYAMGWYRQAPGKERELVAAITSGDRTNYADSVKGRFTMSRDNAKNTVYLQMNSLKPEYTADYYCAARRDYWAPYYYWGQGTQVTVSS,high polyreactivity
12,QVQLVESGGVLVQAGGSLRISCAASGFIFAYNAMGWYRQAPGKETELVAAISWNGGNTYYADSVKGRFTISRDNAKNTVYLQMNSLKPEDTAVYYCAAIPKPFRSYGYWGKGTQVTVSS,high polyreactivity
13,QVQLVESGGVLVQAGGSLRLSCAASGFIFKKYAMGWYRQEPGKEMELVAAITIGGSTYYADSVKGRFTISRDNAKNTVYLQMNSLKPEDTAVYYCAAVQGKVRGGYYWGQGTQVTVSS,high polyreactivity
14,QVQLVESGGVLVQAGGSLRLSCAASGFIFSEYAMGWYRHAPGKERELVAAISRSGGRTYYADSVKGRFTISRDNAKNTVYLQMNSLKPEDTAVYYCAAVWWWYYNHYYYWGQGTLVTVSS,high polyreactivity
15,QVQLVESGGVLVQAGGSLRLSCAASGFINLRYAMGWYRQAPGKERELVAAITSGGNTYYADSVKGRFTISRDNAKNTVSLQRNSLKQEDTAVYYCAAERFVITYPISRYYYWGQGTQVTVSS,low polyreactivity
16,QVQLVESGGVLVQAGGSLRLSCAASGFTFDYYAMGWYIPAPGKERELVASISYNGGITNYADSVQGRFTISRDNAKNTVFLHMHSLKPEDTAVYYWNAVPLYYWRFDYWGQGTQVTVSS,low polyreactivity
17,QVQLVESGGVLVQAGGSLRLSCAASGFTFSHNAMGWYRLARGKERELVAAISKGGSSTYYADSVKGRFTISRDNAKNTVYLQMNSLKPEDTAVYYCARPSPHKGYDYWGQGTQVTESS,high polyreactivity
18,QVQLVESGGVLVQAGGSLRLSCAASGFTFSLYAMGWYRQAPGKERELVASISRSGGSTYYADSVKGRFTISRDNAKNTVYLQMNSLKPEDTAVYSCAARWRPYKYDSWGQGTQVTVSS,high polyreactivity
19,QVQLVESGGVLVQAGGSLRLSCAASGFTFWSYAMGWYRQAPGKERELVAAISSGDNTYYADSVKGRFTISRDNAKNTVYLQMNSLKPEDTAVYYCNAFYYYEYDYWGQGTQVTVSS,low polyreactivity
20,QVQLVESGGVLVQAGGSLRLSCAASGIIFFGYAMGWYRQAPGKERELFAAISYSTGGTSTYADSVKGRFTISRDNAKNTVYLQKNSLKPEDTAVYYCAVRRQYRRAYSFSQSRYDYWGQGTQVTVSS,high polyreactivity
21,QVQLVESGGVLVQAGGSLRLSCAASGIIFRSNVMGWYRQAPGKERELVAAISTGGGRTYYADSVKGRFTISRDNAKNTVYLQMNILKPEDTAVYYCAAETTPYQPDGFDEYYYWGQGTQVTVSS,high polyreactivity
